Results on two molecules are retold here after publication PMC5628889, “Thermal adaptation of mesophilic and thermophilic FtsZ assembly by modulation of the critical concentration” (PLoS ONE, 2017).

Series [1] concerns the target Methanocaldococcus jannaschii FtsZ-his6 fusion protein (Methanocaldococcus jannaschii) (UniProt Q57816). Kind of series: 90° light scattering; MjFtsZ self-assembly started with 1 mM GTP; 50 mM MES-KOH pH 6.5, 5 mM MgCl2, 300 mM KCl; 40°C; critical concentration from extent of polymerization vs total protein; k_depol from the slope of the disassembly stage (7 μM); monomer addition at polymer ends, apparent.

Series [2] has the same target. Kind of series: 90° light scattering; MjFtsZ self-assembly started with 1 mM GTP; 50 mM MES-KOH pH 6.5, 5 mM MgCl2, 300 mM KCl; 80°C; critical concentration from extent of polymerization vs total protein; k_depol from the slope of the disassembly stage (7 μM); monomer addition at polymer ends, apparent.
Series [3] has the same target. Description: 90° light scattering; MjFtsZ self-assembly started with 1 mM GTP; 50 mM MES-KOH pH 6.5, 5 mM MgCl2, 300 mM KCl; 70°C; critical concentration from extent of polymerization vs total protein; k_depol from the slope of the disassembly stage (7 μM); monomer addition at polymer ends, apparent.
Series [4] has the same target.
Series [5] shares this target. Kind of series: van't Hoff analysis of critical concentrations (light scattering + GTPase activity); MjFtsZ; global fit of ln(1/CC) vs 1/T (40-80°C) with the integrated van't Hoff equation; parameters extrapolated to the optimal growth temperature; polymer elongation, apparent.
Series [6] shares this target. Description: 90° light scattering; MjFtsZ self-assembly started with 1 mM GTP; 50 mM MES-KOH pH 6.5, 5 mM MgCl2, 300 mM KCl; 60°C; critical concentration from extent of polymerization vs total protein; k_depol from the slope of the disassembly stage (7 μM); monomer addition at polymer ends, apparent.
Series [7] has the same target. Kind of series: 90° light scattering; MjFtsZ self-assembly started with 1 mM GTP; 50 mM MES-KOH pH 6.5, 5 mM MgCl2, 300 mM KCl; 50°C; critical concentration from extent of polymerization vs total protein; k_depol from the slope of the disassembly stage (7 μM); monomer addition at polymer ends, apparent.
Series [8] has the same target. Description: negative-stain transmission electron microscopy; 10 μM MjFtsZ polymerized with 1 mM GTP at 80°C; 50 mM MES-KOH pH 6.5, 5 mM MgCl2, 300 mM KCl; 2% uranyl acetate.
Series [9] concerns the molecule itself. Description: negative-stain transmission electron microscopy; 10 μM EcFtsZ polymerized with 1 mM GTP at 30°C; 50 mM MES-KOH pH 6.5, 5 mM MgCl2, 50 mM KCl; 2% uranyl acetate.
Series [10] concerns the molecule itself. Kind of series: van't Hoff analysis of critical concentrations (light scattering + GTPase activity); EcFtsZ; global fit of ln(1/CC) vs 1/T (10-30°C) with the integrated van't Hoff equation; parameters extrapolated to the optimal growth temperature; polymer elongation, apparent.

Turning to “Methanocaldococcus jannaschii FtsZ-his6 fusion protein (from UniProt Q57816 1-364) (natural protein)”, in [1], the critical concentration for polymerization C (C-Pol) (= 1/Kp) is 3.9 µM. The critical concentration for polymerization C (C-Pol) (= 1/Kp) in series [2] came to 1.1 µM. In series [3], the critical concentration for polymerization C (C-Pol) (= 1/Kp) was 1.6 µM. For the same molecule, in series [4], the critical concentration for the GTPase activity C (C-GTPase) (malachite green phosphate release, 1 mM GTP), 40°C amounted to 5.5 µM; the critical concentration for the GTPase activity C (C-GTPase) (malachite green phosphate release, 1 mM GTP), 45°C was 4.7 µM; the critical concentration for the GTPase activity C (C-GTPase) (malachite green phosphate release, 1 mM GTP), 50°C was 3.3 µM; the critical concentration for the GTPase activity C (C-GTPase) (malachite green phosphate release, 1 mM GTP), 55°C was 3.3 µM. In series [4], this molecule registered a critical concentration for the GTPase activity C (C-GTPase) (malachite green phosphate release, 1 mM GTP), 65°C of 2.2 µM; a critical concentration for the GTPase activity C (C-GTPase) (malachite green phosphate release, 1 mM GTP), 70°C of 1 µM; a critical concentration for the GTPase activity C (C-GTPase) (malachite green phosphate release, 1 mM GTP), 80°C of 1.1 µM. Moreover, in [5], the dH was 5.57 kJmol^−1. Also, the critical concentration for polymerization C (C-Pol) (= 1/Kp) in series [6] amounted to 1.6 µM. In addition, the critical concentration for polymerization C (C-Pol) (= 1/Kp) in series [7] amounted to 1.8 µM. Moreover, in series [8], the stoichiometry N is greater than 120 subunits.

B1: Wild type Escherichia coli FtsZ (natural protein, UniProt P0A9A6 1-383, looked up)
chain: MFEPMELTNDAVIKVIGVGGGGGNAVEHMVRERIEGVEFFAVNTDAQALRKTAVGQTIQIGSGITKGLGAGANPEVGRNAADEDRDALRAALEGADMVFIAAGMGGGTGTGAAPVVAEVAKDLGILTVAVVTKPFNFEGKKRMAFAEQGITELSKHVDSLITIPNDKLLKVLGRGISLLDAFGAANDVLKGAVQGIAELITRPGLMNVDFADVRTVMSEMGYAMMGSGVASGEDRAEEAAEMAISSPLLEDIDLSGARGVLVNITAGFDLRLDEFETVGNTIRAFASDNATVVIGTSLDPDMNDELRVTVVATGIGMDKRPEITLVTNKQVQQPVMDRYQQHGMAPLTQEQKPVAKVVNDNAPQTAKEPDYLDIPAFLRKQAD
notes: Cell division protein FtsZ, Escherichia coli, wild type; assembly was started with 1 mM GTP; also called EcFtsZ; mesophilic EcFtsZ; source: E. coli BL21 (DE3), overexpressed, purified (polymerization-depolymerization cycles)
For B1, in [9], the “stoichiometry N” value was greater than 120 subunits. In addition, in series [10], the dH is -18.4 kJmol^−1.

The stoichiometry N is a count of units in the complex or per binding partner.
